Experimental findings from patent publication US9259432B1, “Composition and methods for targeted delivery of a therapeutic compound to the brain or spinal cord of a subject for treatment of neurodegenerative diseases” (Parminder J. S. Vig, priority 2011, dated 2016) are described below.

This assay has as its target T1, S100B (Homo sapiens, UniProt P04271).
T1 construct: purchased Sigma-Aldrich
T1 sequence (P04271 2-92 limits assumed): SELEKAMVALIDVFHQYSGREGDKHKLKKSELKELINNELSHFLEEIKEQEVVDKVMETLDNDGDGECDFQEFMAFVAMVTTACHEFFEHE
Briefly: Tryptophan fluorescence quenching binding studies. The procedure:
The tryptophan fluorescence of 5.0 μM Synb1-ELP-TRTK, 5.0 μM Synb1-ELP-GGC and 5.0 μM TRTK12 were measured using an Aminco Bowman Series 2 fluorescent spectrophotometer with and Excitation wavelength of 295 nm and an Emission wavelength of 350 nm in 25 mM TrisHCL and 0.1 mM CaCl2 at 12° C. (to avoid aggregation of ELP) or in a solution of containing 25 mM TrisHCL, 0.1 mM CaCl2 and 1 mM EGTA at 12° C. S100B was titrated from 100 nM up to 3.0 μM into the various peptide solutions and changes in tryptophan fluorescence were recorded into an Excel file and graphs produced. A Fluorescence % was plotted against free S100B concentration using GraphPad Prism software. A Fluorescence % was calculated as follows: [(Maximum fluorescence−Observed fluorescence)/(Maximum fluorescence−Minimum Fluorescence)]×100%. Where the maximum fluorescence is the fluorescence of 5.0 μM Synb1-ELP-TRTK or 5.0 μM TRTK12 before titration of S100B and the minimum fluorescence is the fluorescence of 5.0 μM Synb1-ELP-TRTK or 5.0 μM TRTK12 fully saturated with bound S100B. […]
Alterations in the binding affinity of a peptide due to its fusion to ELP have never been studied previously. […] Fluorescent spectroscopy is a sensitive tool used to monitor changes in the local environment of tryptophan residues that occur during a protein-ligand binding event; furthermore, changes in tryptophan fluorescence can be used to calculate binding affinity (Weljie and Vogel, 2000, Bocedi et al., 2004). Previous work has shown that S100B binding reduces tryptophan fluorescence of TRTK12 and like peptides (Ivanenkov et al., 1995). The tryptophan fluorescence of 5.0 μM Synb1-ELP-TRTK and 5.0 μM Synb1-ELP-GGC were measured using a fluorescent spectrophotometer with an Excitation wavelength of 295 nm and an Emission wavelength of 350 nm in 25 mM TrisHCL and 0.1 mM CaCl2 at 12° C. At 295 nm, tryptophan emission spectrum is dominant over the weaker tyrosine and phenylalanine fluorescence (Vivian and Callis, 2001). […] W755 has very little fluorescence at 350 nm which may be due to the 150 neighboring VPGXG repeats of ELP (FIG. 12A). […]

Broadly, the Kd is the concentration at which binding is half-saturated. Low values mean a tighter complex, high ones a looser complex. “Synb1-ELP-TRTK: thermally responsive S100B inhibitory polypeptide: Synb1 cell penetrating peptide, elastin-like polypeptide (ELP) and TRTK12 peptide fused”: the “impact on S100B binding affinity compared to the TRTK12 peptide alone” value stood at 2 fold. For the setting “5.0 μM peptide, 25 mM TrisHCL, 0.1 mM CaCl2, 12° C.”, this substance returned a Kd of 518 ± 80 nM. Moreover, for the setting “25 mM TrisHCL, 0.1 mM CaCl2 and 1 mM EGTA”, the “effect of S100B titration on tryptophan fluorescence at 350 nm with calcium depleted” value is given as “no effect”.
